Values belong to the substance of their own block, whether it stands above or below them.
What was measured:
[1] = molecular target: MC receptor endogenous to Xenopus laevis melanophores (Xenopus laevis); assay: cell-based or functional assay
[2] = molecular target: atypical MC receptor of Cos-7 cells; assay: estimated from the shift of the α-MSH cAMP curve in Cos-7 cells (functional)
[3] = molecular target: MC receptor endogenous to Xenopus laevis melanophores (Xenopus laevis); assay: Schild plot; antagonism of α-MSH pigment dispersion in Xenopus melanophores (functional)
[4] = molecular target: human MCR-1 receptor (human) (UniProt Q01726); assay: cell-based or functional assay
Chain of human MCR-1 receptor (human) (Q01726 whole entry): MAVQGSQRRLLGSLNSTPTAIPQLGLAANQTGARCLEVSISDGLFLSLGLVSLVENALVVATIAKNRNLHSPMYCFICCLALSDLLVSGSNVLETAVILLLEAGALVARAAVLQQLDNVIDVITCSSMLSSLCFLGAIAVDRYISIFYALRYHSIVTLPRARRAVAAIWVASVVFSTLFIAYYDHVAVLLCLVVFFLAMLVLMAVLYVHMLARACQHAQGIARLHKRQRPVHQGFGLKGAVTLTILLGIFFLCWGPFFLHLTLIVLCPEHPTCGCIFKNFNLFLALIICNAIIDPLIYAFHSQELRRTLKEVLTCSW

[5] = molecular target: human MCR-3 receptor (human) (UniProt P41968); assay: cell-based or functional assay
Chain of human MCR-3 receptor (human) (P41968 whole entry): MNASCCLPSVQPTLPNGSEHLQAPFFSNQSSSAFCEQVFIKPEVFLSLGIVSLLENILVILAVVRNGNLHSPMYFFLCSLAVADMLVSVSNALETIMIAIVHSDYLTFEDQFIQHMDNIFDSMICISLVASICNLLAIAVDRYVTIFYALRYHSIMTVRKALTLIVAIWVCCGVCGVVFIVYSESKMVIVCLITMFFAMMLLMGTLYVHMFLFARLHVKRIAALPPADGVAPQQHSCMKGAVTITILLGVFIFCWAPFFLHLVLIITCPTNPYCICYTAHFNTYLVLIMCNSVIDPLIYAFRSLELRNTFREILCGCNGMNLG

[6] = molecular target: atypical MC receptor of Cos-7 cells; assay: cell-based or functional assay
[7] = molecular target: human MCR-4 receptor (human) (UniProt P32245); assay: cell-based or functional assay
Chain of human MCR-4 receptor (human) (P32245 whole entry): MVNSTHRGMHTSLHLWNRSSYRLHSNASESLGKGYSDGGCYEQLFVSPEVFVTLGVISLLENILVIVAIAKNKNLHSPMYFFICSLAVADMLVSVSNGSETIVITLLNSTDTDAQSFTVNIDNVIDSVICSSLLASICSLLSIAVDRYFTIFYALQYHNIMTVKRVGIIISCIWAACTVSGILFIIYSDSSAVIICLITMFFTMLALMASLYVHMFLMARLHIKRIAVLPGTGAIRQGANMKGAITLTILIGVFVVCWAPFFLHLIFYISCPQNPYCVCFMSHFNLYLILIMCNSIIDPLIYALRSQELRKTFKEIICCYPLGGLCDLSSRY

[8] = molecular target: ACTH (MCR-2) receptor endogenous to murine Y1 adrenocortical cells (murine) (UniProt Q64326); assay: cell-based or functional assay
Chain of ACTH (MCR-2) receptor endogenous to murine Y1 adrenocortical cells (murine) (Q64326 whole entry): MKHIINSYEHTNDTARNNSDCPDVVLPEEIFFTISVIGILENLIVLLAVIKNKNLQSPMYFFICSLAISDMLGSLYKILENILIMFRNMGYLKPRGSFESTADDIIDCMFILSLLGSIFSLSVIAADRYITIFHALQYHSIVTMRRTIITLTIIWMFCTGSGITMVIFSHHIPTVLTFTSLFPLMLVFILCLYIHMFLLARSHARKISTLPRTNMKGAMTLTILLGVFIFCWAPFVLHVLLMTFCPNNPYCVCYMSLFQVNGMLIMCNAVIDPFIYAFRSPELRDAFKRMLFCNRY

IC50 in the frog MCR assay [1]: > 10000 nM
Substance: urocortin (peptide)

Kd [2]: 1000 nM
Ki [3]: 71 nM
EC50 of α-MSH in the presence of 30 µM dynorphin A(1-13)-NH2, MCR-1 [4]: 2100 nM
EC50 of α-MSH in the presence of 30 µM dynorphin A(1-13)-NH2, MCR-3 [5]: 1600 nM
fold shift of the α-MSH EC50 by 30 µM dynorphin A(1-13)-NH2 [6]: 50 fold
IC50 nM in Frog Melanophore Assay [1]: 145 nM
EC50 of α-MSH in the presence of 30 µM dynorphin A(1-13)-NH2, MCR-4 [7]: 2000 nM
Substance: dynorphin A(1-13)-NH2 (from UniProt P01213 207-219) (peptide)

Ki [3]: 12 nM
pKi [3]: 7.91
Substance: p-anisoyl-[D-Arg^6,9, D-Lys^11, D-Leu^12] dynorphin A(6-12)-NH2 (peptide)

IC50 in the frog MCR assay [1]: > 10000 nM
Substance: neurotensin(8-13) analog, D-Arg-Arg-Pro-Trp-Ile-Leu (peptide)

Ki [3]: 79 nM
dose ratio of α-MSH dose-response curves with and without 30 µM dynorphin A(2-13), MCR-1 [4]: 250
EC50 of ACTH-(1-24) in the presence of 30 µM dynorphin A(2-13) [8]: 28 nM
fold shift to the right of the concentration-response curve of ACTH-(1-24) at 30 µM [8]: 15 fold
dose ratio of α-MSH dose-response curves with and without 30 µM dynorphin A(2-13), MCR-3 [5]: 128
dose ratio of α-MSH dose-response curves with and without 30 µM dynorphin A(2-13), MCR-4 [7]: 147
Substance: dynorphin A(2-13) (from UniProt P01213 176-187) (peptide)
